*1 amine or outer side, *2 acyl side, *3 side chain or, on linkers, in order; H or OH if unused. Bridges are numbered along the chain shown (N, C = ends). Where no end group is shown, it is not given here. [ ]: non-standard residue; d: D form. The star is where a group is joined. TATA = O=C(CC[*:1])N1CN(C(=O)CC[*:2])CN(C(=O)CC[*:3])C1; 2Nal = N[C@@H](Cc1ccc2ccccc2c1)C(=O)O; NMeA = CN[C@@H](C)C(=O)O; Pent4ynoyl = C#CCCC(=O)*
How the values were obtained:
[1] = molecular target: T1, Human TREM2 extracellular domain (ECD), residues 19-131, C-terminally biotinylated, glycosylated (human, UniProt Q9NZC2 19-131, C-terminally biotinylated; glycosylated); assay: BLI steady state, glycosylated human TREM2 ECD on sensor
T1 construct: range 19-131; loaded on Superstreptavidin biosensors; also called Human BLI glycosylated
T1 sequence (looked up): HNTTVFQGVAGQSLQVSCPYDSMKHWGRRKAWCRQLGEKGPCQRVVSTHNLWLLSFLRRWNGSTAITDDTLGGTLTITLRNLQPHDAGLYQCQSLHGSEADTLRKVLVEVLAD
Experimental: (§1) Bio-layer interferometry was performed on an Octet RED384® system (Sartorius) at 25° C. in a buffer containing 50 mM HEPES (pH 7.5), 150 mM NaCl and 0.1% Tween. […] Reference wells containing no bicycle peptides and reference sensors loaded with an unrelated protein (His-tagged MLLT3a) were subjected to the same assay protocol and double reference subtraction was used for processing to account for non-specific binding. Traces were analysed using Octet Software (Version 11.0). Association and dissociation curves were globally fit and the response at equilibrium (Req) plotted against concentration to obtain steady-state KD values.

[2] = molecular target: T2, Human TREM2 extracellular domain (ECD), residues 19-131, C-terminally biotinylated, deglycosylated (human, UniProt Q9NZC2 19-131, C-terminally biotinylated; deglycosylated); assay: BLI steady state, deglycosylated human TREM2 ECD on sensor
T2 construct: range 19-131; loaded on Superstreptavidin biosensors; also called triggering receptor expressed on myeloid cells 2; Human BLI (deglycosylated)
T2 sequence (looked up): T1 sequence (looked up)
Experimental: as §1

[3] = molecular target: T3, TREM2 on human iPSC macrophages (human, UniProt Q9NZC2 19-230); assay: cell-based or functional assay
T3 sequence (looked up): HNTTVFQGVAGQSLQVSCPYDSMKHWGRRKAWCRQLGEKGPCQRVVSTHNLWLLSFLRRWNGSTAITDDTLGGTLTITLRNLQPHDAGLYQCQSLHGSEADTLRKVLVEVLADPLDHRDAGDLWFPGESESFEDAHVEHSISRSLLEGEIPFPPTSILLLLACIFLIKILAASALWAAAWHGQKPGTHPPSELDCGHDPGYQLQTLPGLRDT

K(Pent4ynoyl)CSEYCFWPFYHC (linker 2-6-13 via TATA) [BCY20042]
Kd [1]: 1350 nM | Kd [2]: 1190 nM

CSEYCFWPFXHC (N-terminal acetyl (Ac); CiSEYCiiFWPF[1Nal]HCiii; Ci, Cii, Ciii on TATA scaffold) [BCY20081]
Kd [2]: 1060 nM

ACSNYCFWPFWQCA (linker 2-6-13 via TATA) [BCY19770]
Kd [2]: 1800 nM | pSYK (µM) [3]: 4.5 µM

ACSEYCFWPFFLCA (linker 2-6-13 via TATA) [BCY19776]
Kd [2]: 750 nM | pSYK (µM) [3]: 4.4 µM

ACSNYCFWPFFQCA (linker 2-6-13 via TATA) [BCY19772]
Kd [2]: 960 nM | pSYK (µM) [3]: 13.9 µM

ACSEYCFWPFWQCA (linker 2-6-13 via TATA) [BCY19778]
Kd [2]: 3600 nM | pSYK (µM) [3]: 4.6 µM

CSEYCFWXFYHC (N-terminal acetyl (Ac); CiSEYCiiFW[Pip]FYHCiii; Ci, Cii, Ciii on TATA scaffold) [BCY20069]
Kd [2]: 1460 nM

Ac-CSEYCFW[NMeA]FYAC (linker 1-5-12 via TATA) [BCY19303]
Kd [2]: 2300 nM | pSYK (µM) [3]: < 3.4 µM

Ac-CSEYCFWPFYAC (linker 1-5-12 via TATA) [BCY19293]
Kd [2]: 970 nM | pSYK (µM) [3]: 7.2 µM

ACTNYCFWPFAVCA (linker 2-6-13 via TATA) [BCY19783]
Kd [2]: 2700 nM | pSYK (µM) [3]: 4.2 µM

CSEYCFWPFYHC-NH2 (linker 1-5-12 via TATA) [BCY18219]
Kd [2]: 700 nM

B1: BCY20062 (peptide)
peptide: CSEYCFXPFYHC
modifications: not fully specified; N-terminal acetyl (Ac); CiSEYCiiF[AzaTrp]PFYHCiii; Ci, Cii, Ciii on TATA scaffold
Kd [2]: 3440 nM

CSEYCFWPXYHC (N-terminal acetyl (Ac); CiSEYCiiFWP[2Nal]YHCiii; Ci, Cii, Ciii on TATA scaffold) [BCY20076]
Kd [1]: 1290 nM

CSEYCFWXFYHC (N-terminal acetyl (Ac); CiSEYCiiFW[Aze]FYHCiii; Ci, Cii, Ciii on TATA scaffold) [BCY20068]
Kd [2]: 2540 nM

B2: BCY20067 (peptide)
peptide: CSEYCFWXFYHC
modifications: N-terminal acetyl (Ac); CiSEYCiiFW[Cis-HyP]FYHCiii; Ci, Cii, Ciii on TATA scaffold
Kd [2]: 23600 nM

Ac-CSEYCF[2Nal]PFYHC (linker 1-5-12 via TATA) [BCY20056]
Kd [2]: 4690 nM

Ac-ACSEYCFWPFYHCA-NH2 (linker 2-6-13 via TATA) [BCY18218]
Kd [2]: 2000 nM

B3: BCY20058 (peptide)
peptide: CSEYCFXPFYHC
modifications: N-terminal acetyl (Ac); CiSEYCiiF[5FTrp]PFYHCiii; Ci, Cii, Ciii on TATA scaffold
Kd [2]: 1430 nM

CSEYCFWPXYHC (N-terminal acetyl (Ac); CiSEYCiiFWP[1Nal]YHCiii; Ci, Cii, Ciii on TATA scaffold) [BCY19668]
Kd [2]: 240 nM | pSYK (µM) [3]: 12.7 µM

ACTNYCFWPFQSCA (linker 2-6-13 via TATA) [BCY19780]
Kd [2]: 2400 nM | pSYK (µM) [3]: 12.6 µM

ACTNYCFWPFQYCA (linker 2-6-13 via TATA) [BCY19779]
Kd [2]: 920 nM | pSYK (µM) [3]: 2.5 µM
